Measured values published in patent publication EP0577752B2.

Biological target: IL-8 binding sites on human neutrophils (human)
Experiment: competition of 125I-IL-8 by unlabelled IL-8 on human neutrophils, 2 hr at 4 degrees

Kd: 1.1 nM
binding sites/cell (binding sites/cell): 31000
Substance: human 72 amino acid IL-8 (from UniProt P10145 21-99) (ligand)
